Results from paper PMC9259969, “Biophysical Screening Pipeline for Cryo-EM Grid Preparation of Membrane Proteins” (Frontiers in Molecular Biosciences, 2022).

B1: Recombinant human ENTH domain from epsin-1 (hENTH) (protein)
chain: NIVHNYSEAEIKVREATSNDPWGPSSSLMSEIADLTYNVVAFSEIMSMIWKRLNDHGKNWRHVYKAMTLMEYLIKTGSERVSQQCKENMYAVQTLKDFQYVDRDGKDQGVNVREKAKQLVALLRDEDRLREER
B2: TolC (natural protein, Escherichia coli, UniProt P02930 23-493, looked up)
chain: ENLMQVYQQARLSNPELRKSAADRDAAFEKINEARSPLLPQLGLGADYTYSNGYRDANGINSNATSASLQLTQSIFDMSKWRALTLQEKAAGIQDVTYQTDQQTLILNTATAYFNVLNAIDVLSYTQAQKEAIYRQLDQTTQRFNVGLVAITDVQNARAQYDTVLANEVTARNNLDNAVEQLRQITGNYYPELAALNVENFKTDKPQPVNALLKEAEKRNLSLLQARLSQDLAREQIRQAQDGHLPTLDLTASTGISDTSYSGSKTRGAAGTQYDDSNMGQNKVGLSFSLPIYQGGMVNSQVKQAQYNFVGASEQLESAHRSVVQTVRSSFNNINASISSINAYKQAVVSAQSSLDAMEAGYSVGTRTIVDVLDATTTLYNAKQELANARYNYLINQLNIKSALGTLNEQDLLALNNALSKPVSTNPENVAPQTPEQNAIADGYAPDSPAPVVQQTSARTTTSNGHNPFRN
notes: TolC, outer membrane protein of Escherichia coli; molecular weight of 161.7 kDa printed for the trimeric state; The protomer is written here; In DDM micelles in the assays; also called integral membrane protein TolC; source: E. coli C43(DE3)ΔAcrAB, solubilised in DDM, purified (HiTrap HP with imidazole elution, SEC)

Experiments:
[1] = target: Q9Y6I3; assay: mass photometry; hENTH at 100 nM in the presence of 200 µM PI(4,5)P2; Refeyn OneMP; control: buffer with 200 µM PI(4,5)P2; conditions: other: mass photometry
[2] = target: the molecule itself; assay: mass photometry; 150 nM TolC in the presence of 0.003% DDM; controls with 0.03% and 0.003% DDM without protein

Protein	N with PI(4,5)P2 [1]	binding result [2]
B1	corresponding to a hexamer of hENTH in the presence of 200 µM PI(4,5)P2	
B2		binds
